Where no end group is shown, it is not given here. The star is where a group is joined. Biotin = O=C1N[C@H]2[C@H](CS[C@H]2CCCCC(=O)*)N1

Assay [1] has as its target T1, GST-Omi PDZ fusion protein (human, UniProt O43464 359-458).
T1 construct: also called GST-hOmiPDZ; hOmi PDZ domain; not shown: glutathione S-transferase (GST) encoded by plasmid pGEX6P-3
T1 sequence: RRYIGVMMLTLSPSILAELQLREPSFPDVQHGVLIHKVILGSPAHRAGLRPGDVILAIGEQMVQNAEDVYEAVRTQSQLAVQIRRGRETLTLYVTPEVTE
Kind of assay: competition ELISA. The procedure: (§1) Affinity Assays—The binding affinities of peptides for Omi PDZ were determined as IC₅₀ values using a previously described competition ELISA(18). The IC₅₀ value was defined as the concentration of peptide that blocked 50% of PDZ domain binding to immobilized peptide. Assay plates were prepared by immobilizing an amino-terminally biotinylated peptide (biotin-GWTMFWV) on maxisorp plates coated with NeuTravidin and blocked with BSA. A fixed concentration of GST-Omi PDZ fusion protein (20 nM) in PBS, 0.5% BSA, 0.1% Tween 20 (PBT buffer) was preincubated for 1 h with serial dilutions of peptide and then transferred to the assay plates. After 1 h incubation, the plates were washed with PBS, 0.05% Tween 20, incubated for 30 min with HRP/anti-GST antibody (1:10,000) in PBT buffer, washed again, and detected with 3,3′,5,5′-Tetramethyl-benzidine/H₂O₂ (TMB) peroxidase substrate.
On the technique in general: An ELISA detects its analyte on a solid surface through an enzyme-linked reagent.

Assay [2] deals with T1, GST-Omi PDZ fusion protein. Put plainly: competition ELISA, immobilized biotin-GWTMFWV. Here is the method: as §1
In assay [3] the target is T2, phage-displayed Omi PDZ (phagemid p8hOmi) (human; M13 bacteriophage).
T2 construct: Multivalent display on phage; not shown: M13 gene-8 coat protein
T2 chain: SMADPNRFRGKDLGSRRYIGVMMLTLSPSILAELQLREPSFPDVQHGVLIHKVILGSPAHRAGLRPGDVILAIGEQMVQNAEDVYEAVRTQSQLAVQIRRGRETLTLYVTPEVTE
Kind of assay: phage selection and phage ELISA on NeutrAvidin-immobilized peptide. Here is the method:
Library Sorting and Analysis—Phage from the libraries described above were propagated in E. coli XL1-blue with the addition of KO7 helper phage. After overnight growth at 37° C. (for peptide library) or 30° C. (for shotgun library), phage were concentrated by precipitation with PEG/NaCl and resuspended in PBS, 0.5% BSA, 0.1% Tween 20, as described previously(19). Phage solutions (10¹² phage/mL) were added to 96-well maxisorp immunoplates that had been coated with capture target and blocked with BSA. For shotgun library sorting, two different targets were used; for the display selection the target was an immobilized antibody that recognized the epitope tag fused to the N terminus of Omi PDZ, while for the function selection a biotinylated peptide that binds to Omi PDZ with high affinity (biotin-SWTMFWV) was immobilized on NeutrAvidin-coated plates. Following a 2 h incubation to allow for phage binding, the plates were washed 10 times with PBS, 0.05% Tween 20. Bound phage were eluted with 0.1 M HCl for 10 min and the eluent was neutralized with 1.0 M Tris base. Eluted phage were amplified in E. Coli XL1-blue and used for further rounds of selection.
Shotgun alanine-scanning of Omi PDZ domain—By superimposing the structure of Omi PDZ with the structure of Erbin PDZ-ligand complex(20), we identified a region that is directly involved or adjacent to the peptide binding site. […]

In assay [4] the target is T1, GST-Omi PDZ fusion protein. Kind of assay: competition ELISA, 20 nM GST-Omi PDZ, immobilized biotin-GWTMFWV as competitor. Here is the method:
as §1

B1: hOmi_c1_t1 (peptide)
peptide: Ac-WTMFWV-OH
notes: also called WTMFWV
B1: the binding result in assay [1] is on record as “binds”.

B2: hOmi_n1_t8 (peptide)
peptide: H-WGGWLG-NH2
notes: also called WGGWLG
Regarding B2, in assay [2], the binding result is “no binding”.

B3: biotin-SWTMFWV (peptide)
peptide: Biotin-SWTMFWV
notes: Immobilized on NeutrAvidin-coated plates for shotgun library sorting
On to B3, for which the binding result in assay [3] was “binds”.

B4: hOmi_n1_t3 (peptide)
peptide: H-SHWWGG-NH2
notes: also called SHWWGG
Consider B4, for which the binding result in assay [2] is listed as “no binding”.

B5: hOmi_c2 (peptide)
peptide: Ac-RFPHFWV-OH
notes: synthetic peptide from libC; also called RFPHFWV
For orientation: IC50 means the concentration needed to halve the response being measured. With B5, the “fold lower affinity vs SWTMFWV (hOmi_c1)” value in assay [1] came out at 50 fold. Besides, in assay [4], the IC50 was 162 µM.

B6: PDZ-Opt (peptide)
peptide: Ac-GQYYFV-OH
notes: synthetic peptide, optimized ligand reported previously from a chemically synthesized library; also called GQYYFV
For B6, in assay [1], the “fold lower affinity vs the optimized peptide derived from libC (hOmi_c1)” value turned out to be 5 fold. Further, the half-maximal inhibitory concentration (IC50) in assay [4] was 17.6 µM.

B7: hOmi_c1 (peptide)
peptide: Ac-SWTMFWV-OH
notes: synthetic peptide from libC; also called SWTMFWV
For the molecule B7, in assay [4], the IC50 was 3.3 µM.

B8: hOmi_c1_A7 (peptide)
peptide: Ac-AWTMFWV-OH
notes: also called AWTMFWV
Take B8: the binding result in assay [1] is on record as “binds”.

B9: hOmi_c1_A1 (peptide)
peptide: Ac-SWTMFWA-OH
notes: also called SWTMFWA
With B9, the “fold increase of IC50 vs SWTMFWV (hOmi_c1)” value in assay [1] was 3 fold. In addition, the half-inhibitory concentration (IC50) in assay [4] turned out to be 10.6 µM.

B10: hOmi_n1_t7 (peptide)
peptide: H-WWGGWLG-NH2
notes: also called WWGGWLG
As for B10, in assay [2], the binding result is listed as “no binding”.

B11: hOmi_n1_t5 (peptide)
peptide: H-SHWW-NH2
notes: also called SHWW; tetrapeptide (SHWW)
Consider B11, for which the “fold lower affinity vs … (hOmi_n1)” value in assay [1] was determined as 3 fold. The concentration for half-maximal inhibition (IC50) in assay [4] amounted to 72.2 µM.

B12: hOmi_n1_t1 (peptide)
peptide: H-SHWWGGWL-NH2
As for B12, in assay [4], the 50% inhibitory concentration (IC50) worked out at 17.6 µM.

B13: hOmi_c1_t3 (peptide)
peptide: Ac-MFWV-OH
notes: also called MFWV
Consider B13, for which, in assay [4], the IC50 was 24.1 µM.

B14: hOmi_n4 (peptide)
peptide: H-ATEFWWGVG-NH2
notes: synthetic peptide from libN
Turning to B14, in assay [4], the IC50 is 32.4 µM.

B15: hOmi_c1_t2 (peptide)
peptide: Ac-TMFWV-OH
notes: also called TMFWV
As for B15, the “fold lower affinity vs SWTMFWV (hOmi_c1)” value in assay [1] worked out at 15 fold.

B16: hOmi_n1_t6 (peptide)
peptide: H-HWWGGWLG-NH2
In the case of B16, the “fold reduction of binding affinity vs … (hOmi_n1)” value in assay [1] came to 3 fold.

B17: hOmi_n1_t2 (peptide)
peptide: H-SHWWGGW-NH2
notes: also called SHWWGGW
Consider B17, for which the IC50 in assay [4] amounted to 26 µM.

B18: hOmi_n1_t4 (peptide)
peptide: H-SHWWG-NH2
notes: also called SHWWG
In the case of B18, the binding result in assay [2] is given as “no binding”.

B19: hOmi_n1 (peptide)
peptide: H-SHWWGGWLG-NH2
notes: synthetic peptide from libN
For the molecule B19, the IC50 in assay [4] amounted to 21.6 µM.

Values taken from US20090192289A1 (Genentech, published 2009).
